Data published in patent US20120207760A1.

Experiments:
[1] = biological target: recombinant homotrimeric HA, A/Hong Kong/2108/03 H9N2 (Influenza A virus A/Hong Kong/2108/03 (H9N2)); experiment: trimeric HA microarray, transfection set 1
[2] = biological target: recombinant homotrimeric HA, A/chicken/Vietnam/NCVD-016/08 H5N1 (Influenza A virus A/chicken/Vietnam/NCVD-016/08 (H5N1)); experiment: trimeric HA microarray, transfection set 1
[3] = biological target: recombinant homotrimeric HA, A/Hong Kong/1073/99 H9N2 (Influenza A virus A/Hong Kong/1073/99 (H9N2)); experiment: trimeric HA microarray, transfection set 1
[4] = biological target: recombinant homotrimeric HA, A/Vietnam/1203/04 H5N1 (Influenza A virus A/Vietnam/1203/04 (H5N1)); experiment: trimeric HA microarray, transfection set 1
[5] = biological target: recombinant homotrimeric HA, A/Japan/305/57 H2N2 (Influenza A virus A/Japan/305/57 (H2N2)); experiment: trimeric HA microarray, transfection set 1
[6] = biological target: recombinant homotrimeric HA, A/California/4/09 H1N1 (Influenza A virus A/California/4/09 (H1N1)); experiment: trimeric HA microarray, transfection set 1
[7] = biological target: recombinant homotrimeric HA, A/Netherlands/219/03 H7N7 (Influenza A virus A/Netherlands/219/03 (H7N7)); experiment: trimeric HA microarray, transfection set 1
[8] = biological target: recombinant homotrimeric HA, A/Anhui/1/05 H5N1 (Influenza A virus A/Anhui/1/05 (H5N1)); experiment: trimeric HA microarray, transfection set 1
[9] = biological target: recombinant homotrimeric HA, A/common magpie/Hong Kong/5052/07 H5N1 (Influenza A virus A/common magpie/Hong Kong/5052/07 (H5N1)); experiment: trimeric HA microarray, transfection set 1
[10] = biological target: recombinant homotrimeric HA, A/Wisconsin/67/05 H3N2 (Influenza A virus A/Wisconsin/67/05 (H3N2)); experiment: trimeric HA microarray, transfection set 1
[11] = biological target: recombinant homotrimeric HA, A/Egypt/3300-NAMRU3/08 H5N1 (Influenza A virus A/Egypt/3300-NAMRU3/08 (H5N1)); experiment: trimeric HA microarray, transfection set 1
[12] = biological target: recombinant homotrimeric HA, A/Solomon Islands/3/06 H1N1 (Influenza A virus A/Solomon Islands/3/06 (H1N1)); experiment: trimeric HA microarray, transfection set 1
[13] = biological target: recombinant homotrimeric HA, A/South Carolina/1/18 H1N1 (Influenza A virus A/South Carolina/1/18 (H1N1)); experiment: trimeric HA microarray, transfection set 1
[14] = biological target: recombinant homotrimeric HA, A/duck/Yangzhou/02/05 H8N4 (Influenza A virus A/duck/Yangzhou/02/2005 (H8N4)); experiment: trimeric HA microarray, transfection set 1
[15] = biological target: recombinant homotrimeric HA, A/Indonesia/5/05 H5N1 (Influenza A virus A/Indonesia/5/05 (H5N1)); experiment: trimeric HA microarray, transfection set 1
[16] = biological target: recombinant homotrimeric HA, A/northern shoveler/California/HKWF115/07 (Influenza A virus A/northern shoveler/California/HKWF115/2007 (H6N1)); experiment: trimeric HA microarray, transfection set 1
[17] = biological target: recombinant homotrimeric HA, A/swine/Ontario/01911-2/99 H4N6 (Influenza A virus A/swine/Ontario/01911-2/99 (H4N6)); experiment: trimeric HA microarray, transfection set 1
[18] = biological target: recombinant homotrimeric HA, A/Vietnam/1203/04 H5N1 (Influenza A virus A/Vietnam/1203/04 (H5N1)); experiment: trimeric HA microarray, transfection set 4
[19] = biological target: recombinant homotrimeric HA, A/Japan/305/57 H2N2 (Influenza A virus A/Japan/305/57 (H2N2)); experiment: trimeric HA microarray, transfection set 4
[20] = biological target: recombinant homotrimeric HA, A/California/4/09 H1N1 (Influenza A virus A/California/4/09 (H1N1)); experiment: trimeric HA microarray, transfection set 4
[21] = biological target: recombinant homotrimeric HA, A/Wisconsin/67/05 H3N2 (Influenza A virus A/Wisconsin/67/05 (H3N2)); experiment: trimeric HA microarray, transfection set 4
[22] = biological target: recombinant homotrimeric HA, A/Solomon Islands/3/06 H1N1 (Influenza A virus A/Solomon Islands/3/06 (H1N1)); experiment: trimeric HA microarray, transfection set 4
[23] = biological target: recombinant homotrimeric HA, A/South Carolina/1/18 H1N1 (Influenza A virus A/South Carolina/1/18 (H1N1)); experiment: trimeric HA microarray, transfection set 4
[24] = biological target: recombinant homotrimeric HA, A/Indonesia/5/05 H5N1 (Influenza A virus A/Indonesia/5/05 (H5N1)); experiment: trimeric HA microarray, transfection set 4
[25] = biological target: recombinant homotrimeric HA, A/swine/Ontario/01911-2/99 H4N6 (Influenza A virus A/swine/Ontario/01911-2/99 (H4N6)); experiment: trimeric HA microarray, transfection set 4

## TCN-202 (2N9) (antibody)
[1]
  Trimeric HA Binding RLU: 24 RLU
[2]
  Trimeric HA Binding RLU: 14 RLU
[3]
  Trimeric HA Binding RLU: 21 RLU
[4]
  Trimeric HA Binding RLU: 37 RLU
[5]
  Trimeric HA Binding RLU: 27 RLU
[6]
  Trimeric HA Binding RLU: 20 RLU
[7]
  Trimeric HA Binding RLU: 55 RLU
[8]
  Trimeric HA Binding RLU: 20 RLU
[9]
  Trimeric HA Binding RLU: 21 RLU
[10]
  Trimeric HA Binding RLU: 27 RLU
[11]
  Trimeric HA Binding RLU: 76 RLU
[12]
  Trimeric HA Binding RLU: 67 RLU
[13]
  Trimeric HA Binding RLU: 32 RLU
[14]
  Trimeric HA Binding RLU: 26 RLU
[15]
  Trimeric HA Binding RLU: 57 RLU
[16]
  Trimeric HA Binding RLU: 13 RLU
[17]
  Trimeric HA Binding RLU: 29 RLU
[18]
  Trimeric HA Binding RLU: 67 RLU
[19]
  Trimeric HA Binding RLU: 334 RLU
[20]
  Trimeric HA Binding RLU: 94 RLU
[21]
  Trimeric HA Binding RLU: 125 RLU
[22]
  Trimeric HA Binding RLU: 34 RLU
[23]
  Trimeric HA Binding RLU: 27 RLU
[24]
  Trimeric HA Binding RLU: 19 RLU
[25]
  Trimeric HA Binding RLU: 157 RLU
